Reference: PMC10509167, “Identification and characterization of endo-α-, exo-α-, and exo-β-D-arabinofuranosidases degrading lipoarabinomannan and arabinogalactan of mycobacteria” (Nature Communications, 2023)

B1: ExoMA1 (MIAR_33200) (Microbacterium arabinogalactanolyticum) (protein)
chain: MPDLNSIAALRQVQTRSISPENFDGTAGGGGRATEGTGADCARDLGPGWKISPSVDIKAGETFELASIEGAGKITHIWITTHTDNWRTLILRAFWDGADEPAVEVPYGDFFCNGWGVFAQVNSQAIAANPHGGFNSYWPMPFRDGARLTIENTSVVDVRVYYQVTYEIGGDHSNDAYFHAQWRRSNPLEELTPHVILEGIEGEGHYVGTYIAWGVNSNGWWGEGEIKFYLDDDTDHPTICGTGTEDYFGGAWNFDIPGKGYTEFSTPYLGMPQVIRPDGLYVSQQRFGMYRWHLQDPIHFATGIPKVDIQALGWRSGWRYLPLRDDIASTAMFYLDRPTARRPKSPSADDMEVHLGTAPVPDLGATPPRV
notes: dodecamer
B2: ExoMA2 (MIAR_33170) (Microbacterium arabinogalactanolyticum) (protein)
chain: SRRARRIPHTAESVAFPLGGIGTGNVSLGARGELRDWEFENLPDKGRLNPRSFFAIHAAPQGGPSATRVLEARSSGRHDRDAGYGFDELAGLPRLDSAGLHGEYPVVDIDFTDATLPVTVSLHAFTPLVPLDADASGIPAAVLRYRVVNPGDAPVTVTVVGSMSHTAGRGAPGPDAPWGMRGTQSVRWRESDGIRGLDFDIDLDHDDPGYGTMSLTTTDSSTTVKPQWVTSYWPDGARLFWNDLADDGLLAPEARLTLEDKPRGLFAERDADPDAPALTEEQMLAKLPRVRTGSLGIVHTLAPGEERDFEFVLAWSFPNRRRGWHGHIIFDDALEDGAPDLRDELGPIVRNHYAVRWPDAWAAAAQLHRDLPALEGATDAFVEELYGGSLDPVLADAVGANIAALRSTTCFVLESPTPELGDGPVFAAWEGSFDHGGSCEGTCTHVWSYAQTAAWLFPGLERSARRAEYLLETDESGAQKFRGNRIFGAPRWFIGPAVDGQLGTFLRLHREWRFCGDDEFLRELWPAAARTLDYAAREWDHDGDGLLDGEMHNTYDIEFHGVEPLSNIIHLAALRAGVRMAGHLGDTARAQEWALRADHVAAAIEGVLWNGEYYRQVIDDVDAHRYQYGDGVLSDQLLGQFHAFLGGLGYLLPEAHVRSALDAIVQHNHRGDLRDHESTQRVYALNDEGGLLLASWPEGGRPALPFVYADEVWTGIEHQVAVSLLFAGRYDDALRIERTLRARYDGAHRSPWNEIECGNHYARSLASWGLLIGASGAQWDAGARTLSFDPVLPGDARFLFTTATGWGGVEIGDDVITLRLHGGALDLDELRLRGEVAGRGIHLDAGETRTLTLT
notes: dimer

Key:
purified protein [1] = substrate: O=[N+]([O-])c1ccc(O[C@H]2O[C@H](CO)[C@@H](O)[C@@H]2O)cc1; experiment: purified protein; type: biochemical, Microbacterium arabinogalactanolyticum; conditions: 37 °C, 50 mM sodium acetate pH 5.5
purified protein [2] = substrate: O=[N+]([O-])c1ccc(O[C@@H]2O[C@H](CO)[C@@H](O)[C@@H]2O)cc1; experiment: purified protein; type: biochemical, Microbacterium arabinogalactanolyticum; conditions: 37 °C, 50 mM sodium phosphate pH 6.0

Protein | Km (purified protein [1]) [µM] | kcat (purified protein [1]) [s⁻¹] | Km (purified protein [2]) [µM] | kcat (purified protein [2]) [s⁻¹]
B1 | 2550 | 44.4 | – | –
B2 | – | – | 2730 | 12.0
